Columns and labels:
[1] = target: T1, Dicer (human, UniProt Q9UPY3 1-1922); assay: SEC; gel filtration column chromatography of Dicer with the dsRBP or chimeric dsRBP, reconstituted from purified proteins; details: both partners purified
T1 construct: Dicer, human endoribonuclease; also called endonuclease Dicer

[2] = target: Dicer;TRBP (human;human, UniProt Q9UPY3;Q15633 1-1922;1-366, |); assay: EMSA; 0.5 uM dsRNA, up to 1 uM complex; Fig 1B: 20 mM HEPES pH 7.5, 300 mM KCl, 5% glycerol, 1 mM TCEP, on ice 45 min, 6% native PAGE; Fig S5: 20 mM Tris-HCl pH 6.5, 1.5 mM MgCl2, 25 mM NaCl, 1 mM DTT, 1% glycerol, on ice 60 min; details: protein: recombinant;recombinant; copies: 1;1
Chain of Dicer;TRBP (Q9UPY3 whole entry, one chain of several): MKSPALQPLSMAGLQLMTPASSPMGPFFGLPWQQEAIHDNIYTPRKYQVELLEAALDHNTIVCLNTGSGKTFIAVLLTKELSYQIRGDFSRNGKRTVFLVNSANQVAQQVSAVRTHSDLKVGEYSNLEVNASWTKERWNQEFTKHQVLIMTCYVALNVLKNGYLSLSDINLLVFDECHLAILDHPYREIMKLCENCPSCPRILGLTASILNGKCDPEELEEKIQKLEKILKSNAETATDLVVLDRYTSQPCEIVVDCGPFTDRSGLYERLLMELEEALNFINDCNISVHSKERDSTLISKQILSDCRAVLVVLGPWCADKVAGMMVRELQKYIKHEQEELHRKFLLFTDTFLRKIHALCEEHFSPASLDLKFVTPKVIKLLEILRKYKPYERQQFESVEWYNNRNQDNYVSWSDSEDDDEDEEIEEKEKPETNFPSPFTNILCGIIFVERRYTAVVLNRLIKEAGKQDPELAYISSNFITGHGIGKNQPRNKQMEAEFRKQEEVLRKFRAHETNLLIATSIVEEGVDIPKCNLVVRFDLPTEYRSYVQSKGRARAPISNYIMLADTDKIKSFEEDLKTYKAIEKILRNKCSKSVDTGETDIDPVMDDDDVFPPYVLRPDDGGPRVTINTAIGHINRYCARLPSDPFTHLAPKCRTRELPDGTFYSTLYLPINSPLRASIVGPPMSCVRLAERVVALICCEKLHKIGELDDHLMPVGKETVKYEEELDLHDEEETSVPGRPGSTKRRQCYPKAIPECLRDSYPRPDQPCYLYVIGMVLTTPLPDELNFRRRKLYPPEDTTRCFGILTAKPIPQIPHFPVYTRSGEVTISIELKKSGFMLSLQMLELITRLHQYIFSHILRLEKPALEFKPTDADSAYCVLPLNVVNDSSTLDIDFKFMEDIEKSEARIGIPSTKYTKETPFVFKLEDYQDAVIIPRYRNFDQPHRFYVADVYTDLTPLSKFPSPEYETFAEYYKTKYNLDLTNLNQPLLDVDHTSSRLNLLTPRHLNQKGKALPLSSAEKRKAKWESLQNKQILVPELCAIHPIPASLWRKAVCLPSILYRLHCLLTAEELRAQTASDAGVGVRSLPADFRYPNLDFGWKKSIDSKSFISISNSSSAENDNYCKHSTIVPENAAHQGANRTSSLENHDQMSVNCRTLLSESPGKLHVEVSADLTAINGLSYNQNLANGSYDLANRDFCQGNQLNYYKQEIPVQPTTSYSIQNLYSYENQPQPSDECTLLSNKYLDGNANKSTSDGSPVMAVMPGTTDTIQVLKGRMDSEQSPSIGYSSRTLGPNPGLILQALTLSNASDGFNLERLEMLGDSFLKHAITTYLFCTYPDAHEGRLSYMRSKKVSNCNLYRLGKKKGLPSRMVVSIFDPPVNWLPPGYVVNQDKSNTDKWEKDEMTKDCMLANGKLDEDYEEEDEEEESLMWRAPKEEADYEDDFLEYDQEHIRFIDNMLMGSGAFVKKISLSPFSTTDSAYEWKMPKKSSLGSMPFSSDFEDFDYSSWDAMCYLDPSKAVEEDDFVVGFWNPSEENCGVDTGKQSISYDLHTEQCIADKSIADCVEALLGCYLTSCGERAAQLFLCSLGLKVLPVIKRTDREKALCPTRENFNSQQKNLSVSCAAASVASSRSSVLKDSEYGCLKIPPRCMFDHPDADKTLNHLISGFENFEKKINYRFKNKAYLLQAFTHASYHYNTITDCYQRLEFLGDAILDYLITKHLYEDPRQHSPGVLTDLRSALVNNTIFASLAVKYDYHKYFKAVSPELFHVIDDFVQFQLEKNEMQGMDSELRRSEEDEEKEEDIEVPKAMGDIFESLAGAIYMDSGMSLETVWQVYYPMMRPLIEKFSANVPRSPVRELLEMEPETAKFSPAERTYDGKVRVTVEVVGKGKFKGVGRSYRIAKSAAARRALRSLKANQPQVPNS

[3] = target: Dicer;PACT (human;human, UniProt Q9UPY3;O75569 1-1922;1-313, |); assay: EMSA; 0.5 uM dsRNA, up to 1 uM complex; shift distinct from PACT alone; Fig 1B: 20 mM HEPES pH 7.5, 300 mM KCl, 5% glycerol, 1 mM TCEP, on ice 45 min, 6% native PAGE; Fig S5: 20 mM Tris-HCl pH 6.5, 1.5 mM MgCl2, 25 mM NaCl, 1 mM DTT, 1% glycerol, on ice 60 min; details: protein: recombinant;recombinant; tags: ;His6-MBP removed by TEV; copies: 1;1
Chain of Dicer;PACT (Q9UPY3 whole entry, one chain of several): as above

[4] = target: T2, TRBP (human, UniProt Q15633 1-366); assay: EMSA; 0.5 uM dsRNA, up to 1 uM protein; Fig 1B: 20 mM HEPES pH 7.5, 300 mM KCl, 5% glycerol, 1 mM TCEP, on ice 45 min, 6% native PAGE; Fig S5: 20 mM Tris-HCl pH 6.5, 1.5 mM MgCl2, 25 mM NaCl, 1 mM DTT, 1% glycerol, on ice 60 min; details: protein: recombinant
T2 sequence: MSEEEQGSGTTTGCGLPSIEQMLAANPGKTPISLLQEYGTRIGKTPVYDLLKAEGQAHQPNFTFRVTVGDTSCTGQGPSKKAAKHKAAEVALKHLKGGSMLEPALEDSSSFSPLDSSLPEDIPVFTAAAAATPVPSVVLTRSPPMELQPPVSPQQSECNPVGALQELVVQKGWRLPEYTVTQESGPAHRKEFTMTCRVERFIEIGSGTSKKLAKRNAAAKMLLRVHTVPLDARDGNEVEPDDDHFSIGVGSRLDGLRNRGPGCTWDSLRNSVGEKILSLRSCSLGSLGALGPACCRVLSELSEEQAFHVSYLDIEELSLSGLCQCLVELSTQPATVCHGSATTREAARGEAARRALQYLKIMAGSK

[5] = target: Dicer (human, UniProt Q9UPY3 1-1922); assay: as above; details: protein: recombinant
[6] = target: T1, Dicer; assay: native gel or EMSA; dsRNA A (0.5 uM) with 0, 0.5 or 1 uM protein or complex in 20 mM HEPES (pH 7.5), 300 mM KCl, 5% glycerol, 1 mM TCEP, on ice 45 min, 6% native PAGE, SYBR-Gold; the shift by the Dicer-dsRBP complex is compared with that by the dsRBP alone; details: both partners purified

B1: protein activator of PKR (PACT) (natural protein, human, UniProt O75569 1-313, looked up)
chain: MSQSRHRAEAPPLEREDSGTFSLGKMITAKPGKTPIQVLHEYGMKTKNIPVYECERSDVQIHVPTFTFRVTVGDITCTGEGTSKKLAKHRAAEAAINILKANASICFAVPDPLMPDPSKQPKNQLNPIGSLQELAIHHGWRLPEYTLSQEGGPAHKREYTTICRLESFMETGKGASKKQAKRNAAEKFLAKFSNISPENHISLTNVVGHSLGCTWHSLRNSPGEKINLLKRSLLSIPNTDYIQLLSEIAKEQGFNITYLDIDELSANGQYQCLAELSTSPITVCHGSGISCGNAQSDAAHNALQYLKIIAERK
notes: called full-length; the chimeras' limits run to residue 313; source: purified (TEV cleavage, HiTrap-SP, Superdex-200)
B1: binds [1].

B2: dsRNA A (dsRNA)
RNA 1: UGGCCUUGGGCAACGGUAAUU
RNA 2: UUACCGUUGCCCAAGGCCAUU
B2: binds [2]; binds [3]; binds [4]. B2: no binding [5].

B3: T12P3 (other, human, UniProt Q15633 1-232, looked up)
chain: MSEEEQGSGTTTGCGLPSIEQMLAANPGKTPISLLQEYGTRIGKTPVYDLLKAEGQAHQPNFTFRVTVGDTSCTGQGPSKKAAKHKAAEVALKHLKGGSMLEPALEDSSSFSPLDSSLPEDIPVFTAAAAATPVPSVVLTRSPPMELQPPVSPQQSECNPVGALQELVVQKGWRLPEYTVTQESGPAHRKEFTMTCRVERFIEIGSGTSKKLAKRNAAAKMLLRVHTVPLDAPENHISLTNVVGHSLGCTWHSLRNSPGEKINLLKRSLLSIPNTDYIQLLSEIAKEQGFNITYLDIDELSANGQYQCLAELSTSPITVCHGSGISCGNAQSDAAHNALQYLKIIAERK
notes: TRBP, human, residues 1-232 (dsRBD1, linker, dsRBD2); PACT, human, residues 197-313 (with dsRBD3); purified by the PACT method, which removes His6-MBP by TEV cleavage; also called chimeric protein T12P3; source: purified (HiTrap-Q flow-through, HiTrap-SP, then as PACT)
B3: binds [1].

B4: trans-activation response RNA-binding protein (TRBP) (natural protein, human, UniProt Q15633 1-366, looked up)
chain: T2 sequence
notes: called full-length; the chimeras' limits run to residue 366; removal of His6-MBP after TEV cleavage on a Ni-NTA column is told by comparison with the PACT purification
B4: binds [6].

— publication PMC3711433, “Differential roles of human Dicer-binding proteins TRBP and PACT in small RNA processing” (Nucleic Acids Research, 2013)
